Measurements from paper doi:10.1101/2025.10.29.685445 (bioRxiv, 2025).

What was measured:
[1] = target: T1, HCoV-HKU1 RBD (residues 310-606 of isolate N5), as used in BLI (Human coronavirus HKU1, isolate N5, UniProt Q0ZME7); assay: BLI; conditions: both partners purified
T1 construct: source: FreeStyle 293-F, transfected (PEI), purified (Protein A, Superdex 200)

[2] = target: T2, HCoV-HKU1 RBD (residues 310-606 of isolate N5), Fc- and His-tagged (Human coronavirus HKU1, isolate N5, UniProt Q0ZME7); assay: SPR; conditions: both partners purified
T2 construct: also called HCoV-HKU1 S1-CTD; not shown: Fc-tag, C-terminal, kept; 8X HisTag, C-terminal, kept
T2 sequence (Q0ZME7 310-606): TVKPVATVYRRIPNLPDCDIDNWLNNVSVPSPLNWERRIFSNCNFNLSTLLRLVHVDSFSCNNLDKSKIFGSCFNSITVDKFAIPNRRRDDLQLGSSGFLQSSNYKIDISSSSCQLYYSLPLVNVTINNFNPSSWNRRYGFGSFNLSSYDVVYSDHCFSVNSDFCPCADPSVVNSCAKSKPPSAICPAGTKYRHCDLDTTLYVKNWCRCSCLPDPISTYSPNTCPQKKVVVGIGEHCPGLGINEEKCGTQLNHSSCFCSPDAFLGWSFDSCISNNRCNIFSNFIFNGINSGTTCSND

T1 sequence (Q0ZME7 310-606): as above

B1: H501-022 IgG (antibody, V domains shown)
VH: QGTLKESGPMLVKPTQTLTLTCNFSGFSLSTSGVGVGWIRQPPGKALECLALIYWNDDQRYSPSLKTRLTITKDTSKNQVVLTMTNMDPVDTATYYCVYSMSRPVAGGVIDHWGQGTLVTVSS
VL: DIQLTQSPSSLSASEGDRVTITCWASQNIRGYLNWYQQKPGKAPKLLIYATSTLESGVPSRFSGSGSVTDYTLTISSLQPEDFATYSCQQSYSSPPTFGGGTKVDIK
notes: also called mAb H501–022; H-022; copies: 2 + 2
Question: Which Kd [1] does the source give for B1 here?
Answer: Its Kd is 2010 pM.

Question: And the koff [1]?
Answer: Its koff is 0.000555 s⁻¹.

Question: What about the kon [1] of the same binder?
Answer: Its kon is 276000 M⁻¹ s⁻¹.

B2: H501-018 IgG (antibody, V domains shown)
VH: QVQLQESGPGLVKPSETLSLTCSVSGGSISNFYWSWIRQPPGKGLEWIGYIYYTGSSEYNPSLKSRVILSVDTSKNHFSLKLSSVTAADTAIYYCARGTWSRRLEVDLWGQGTLVTVSS
VL: QSVLTQPPSASGTPGQRVTISCSGSSSNIGSNYVYWYQQLPGTAPKLLIYRSIQRPSGVPDRFSGSKSGTSASLAISGLRSEDEADYYCATWDDSLNSWVFAGGTKLTVL
notes: also called mAb H501–018; H-018; copies: 2 + 2
Question: For B2, which Kd [1] is on record?
Answer: Its Kd is 370 pM.

Question: What about the koff [1] of the same binder?
Answer: Its koff is 0.000105 s⁻¹.

Question: What about the kon [1] of the same binder?
Answer: The kon was 283000 M⁻¹ s⁻¹.

B3: H501-008 Fab (Fab, V domains shown)
VH: QVQLVQSGGGVVQPGRSLRLSCAVSGFTLDRYAMHWVRQAPGKALEWVALMSADGREQYYAESVKGRFTFSRDSSKNTLYLQMHNLRTDDSSVYFCAREGPMYYDAWSGRSYYNNYALDVWGRGTTVAVSS
VL: QSVLTQPPSVSAAPGQTVTISCSGSSSNIGDNYVSWYQQVPGTAPRLLVYDNNRRPLGIPDRFSGSKSGTSATLAIAGLQTGDEADYYCGTWDSSLSAGVFGGGTKLTVV
notes: also called H501–08 Fab
Question: With B3 as the binder, how does the Kd [2] read?
Answer: Its Kd is 161 pM.

B4: H501-008 IgG (antibody, V domains shown)
VH: QVQLVQSGGGVVQPGRSLRLSCAVSGFTLDRYAMHWVRQAPGKALEWVALMSADGREQYYAESVKGRFTFSRDSSKNTLYLQMHNLRTDDSSVYFCAREGPMYYDAWSGRSYYNNYALDVWGRGTTVAVSS
VL: QSVLTQPPSVSAAPGQTVTISCSGSSSNIGDNYVSWYQQVPGTAPRLLVYDNNRRPLGIPDRFSGSKSGTSATLAIAGLQTGDEADYYCGTWDSSLSAGVFGGGTKLTVV
notes: also called H501–08; mAb H501–008; copies: 2 + 2
Question: With B4 as the binder, how does the Kd [1] read?
Answer: Its Kd is 937 pM.

Question: What about the koff [1] of the same binder?
Answer: The koff was 0.000315 s⁻¹.

Question: What about the kon [1] of the same binder?
Answer: The kon was 336000 M⁻¹ s⁻¹.
